According to patent US6812337 (GOVERNING COUNCIL OF THE UNIVERSITY OF TORONTO, dated 2004):

B1: PAMPΔ312-369 (other, not shown: small tags and cut ends)
chain: NSVERKIYIPLNKTAPCVRLLNATHQIGCQSSISGDTGVIHVVEKEEDLQWVLTDGPNPPYMVLLESKHFTRDLMEKLKGRTSRIAGLAVSLTKPSPASGFSPSVQCPNDGFGVYSNSYGPEFAHCREIQWNSLGNGLAYEDFSFPIFLLEDENETKVIKQCYQDHNLSQNGSAPTFPLCAMQLFSHMHAVISTATCMRRSSIQSTFSINPEIVCDPLSDYNVWSMLKPINTTGTLKPDDRVVVAATRLDSRSFFWNVAPGAESAVASFVTQLAAAEALRTSLELWMHTDPVSQKNESVRNQVEDLLATLEKSGAGVPAVILRRPNQSQPLPPSSLQRFLRARNISGVVLADHSGAFHNKYYQSIYDTAENINVSYPEWLSPEEDLNFVTDTAKALADVATVLGRALYELAGGTNFSDTVQADPQTVTRLLYGFLIKANNSWFQSILRQDLRSYLGDGPLQHYIAVSSPTNTTYVVQYALANLTGTVVNLTREQCQDPSKVPSENKDLYEYSWVQGPLHSNETDRLPRCVRSTARLARALSPAFELSQWSSTEYSTWTESRWKDIRARIFLIASKELELITLTVGFGILIFSLIVTYCINAKADVLFIAPREPGAVSY
B2: calnexin (other, UniProt P27824 21-592, looked up)
chain: HDGHDDDVIDIEDDLDDVIEEVEDSKPDTTAPPSSPKVTYKAPVPTGEVYFADSFDRGTLSGWILSKAKKDDTDDEIAKYDGKWEVEEMKESKLPGDKGLVLMSRAKHHAISAKLNKPFLFDTKPLIVQYEVNFQNGIECGGAYVKLLSKTPELNLDQFHDKTPYTIMFGPDKCGEDYKLHFIFRHKNPKTGIYEEKHAKRPDADLKTYFTDKKTHLYTLILNPDNSFEILVDQSVVNSGNLLNDMTPPVNPSREIEDPEDRKPEDWDERPKIPDPEAVKPDDWDEDAPAKIPDEEATKPEGWLDDEPEYVPDPDAEKPEDWDEDMDGEWEAPQIANPRCESAPGCGVWQRPVIDNPNYKGKWKPPMIDNPSYQGIWKPRKIPNPDFFEDLEPFRMTPFSAIGLELWSMTSDIFFDNFIICADRRIVDDWANDGWGLKKAADGAAEPGVVGQMIEAAEERPWLWVVYILTVALPVFLVILFCCSGKKQTSGMEYKKTDAPQPDVKEEEEEKEEEKDKGDEEEEGEEKLEEKQKSDAEEDGGTVSQEEEDRKPKAEEDEILNRSPRNRKPRRE
notes: whole, on cells; The only named member of 'other ER-resident proteins'; also called other ER-resident proteins (e.g., calnexin)
B3: PAMPΔ312-340 (other, not shown: small tags and cut ends)
chain: NSVERKIYIPLNKTAPCVRLLNATHQIGCQSSISGDTGVIHVVEKEEDLQWVLTDGPNPPYMVLLESKHFTRDLMEKLKGRTSRIAGLAVSLTKPSPASGFSPSVQCPNDGFGVYSNSYGPEFAHCREIQWNSLGNGLAYEDFSFPIFLLEDENETKVIKQCYQDHNLSQNGSAPTFPLCAMQLFSHMHAVISTATCMRRSSIQSTFSINPEIVCDPLSDYNVWSMLKPINTTGTLKPDDRVVVAATRLDSRSFFWNVAPGAESAVASFVTQLAAAEASRMVYDMEKGKFPVQLENVDSFVELGQVALRTSLELWMHTDPVSQKNESVRNQVEDLLATLEKSGAGVPAVILRRPNQSQPLPPSSLQRFLRARNISGVVLADHSGAFHNKYYQSIYDTAENINVSYPEWLSPEEDLNFVTDTAKALADVATVLGRALYELAGGTNFSDTVQADPQTVTRLLYGFLIKANNSWFQSILRQDLRSYLGDGPLQHYIAVSSPTNTTYVVQYALANLTGTVVNLTREQCQDPSKVPSENKDLYEYSWVQGPLHSNETDRLPRCVRSTARLARALSPAFELSQWSSTEYSTWTESRWKDIRARIFLIASKELELITLTVGFGILIFSLIVTYCINAKADVLFIAPREPGAVSY

Tests used:
[1] = target: wild type human presenilin-1 (PS1) (human, UniProt P49768 1-467); test: cell-based or functional assay
[2] = target: T1, V5-tagged human Presenilin Associated Membrane Protein (PAMP) (human, UniProt Q92542 34-709); test: immunoprecipitation from cell lysates, Western blot
T1 construct: Expressed by transfection in HEK293 cells or murine embryonic fibroblasts and tested by co-immunoprecipitation from detergent lysates; Glycosylated (~110 kDa, ~80 kDa after Endo H); also called V5-PAMP; V5-tagged-PAMP

| Binder | Aβ42/Aβ40 Ratio [1] | binding result [2] |
| --- | --- | --- |
| B1 | 0.09 normalized to mock transfection |  |
| B2 |  | no binding |
| B3 | 0.59 normalized to mock transfection |  |
